Test results reported in article PMC3954644 (Biochemistry, 2014).

How the values were obtained:
[1] = biological target: the molecule itself; experiment: AUC
[2] = biological target: the molecule itself; experiment: crystal structure

B1: Put2p mutant W193A, residues 23-575, His tag removed (enzyme, S. cerevisiae, UniProt P07275 23-575, looked up)
chain: KPPKHIRNEPVKPFRNIDLKDWDLLRASLMKFKSSSLEVPLVINGERIYDNNERALFPQTNPANHQQVLANVTQATEKDVMNAVKAAKDAKKDWYNLPFYDRSAIFLKAADLISTKYRYDMLAATMLGQGKNVYQAEIDCITELSDFFRYYVKYASDLYAQQPVESADGTANKAEYRPLEGFVYAVSPFNFTAIAANLIGAPALMGNTVVWKPSQTAALSNYLLMTVLEEAGLPKGVINFIPGDPVQVTDQVLADKDFGALHFTGSTNVFKSLYGKIQSGVVEGKYRDYPRIIGETGGKNFHLVHPSANISHAVLSTIRGTFEFQGQKCSAASRLYLPESKSEEFLSDMFGILQSQNVVPMNTSASPISGGNLRGFMGPVIHEQSFDKLVKVIEDAKKDPELEILYGGQYDKSQGWFVGPTVIKAKRPDHPYMSTEFFGPILTVYEYPDTEFNEICDIIDNTSQYALTGAIFAKDRKAIEYADEKLKFSAGNFYINDKCTGAVVSQQWFGGARMSGTDDKAGGPNILSRFVSIRNTKENFYELTDFKYPSNYE
In the case of B1, the “stoichiometry N” value [1] is reported as 2.

B2: human Δ1-pyrroline-5-carboxylate dehydrogenase (HsP5CDH, ALDH4A1), residues 18-563, tag-free (enzyme, UniProt P30038 18-563, looked up)
chain: TGAGLRWKHTSSLKVANEPVLAFTQGSPERDALQKALKDLKGRMEAIPCVVGDEEVWTSDVQYQVSPFNHGHKVAKFCYADKSLLNKAIEAALAARKEWDLKPIADRAQIFLKAADMLSGPRRAEILAKTMVGQGKTVIQAEIDAAAELIDFFRFNAKYAVELEGQQPISVPPSTNSTVYRGLEGFVAAISPFNFTAIGGNLAGAPALMGNVVLWKPSDTAMLASYAVYRILREAGLPPNIIQFVPADGPLFGDTVTSSEHLCGINFTGSVPTFKHLWKQVAQNLDRFHTFPRLAGECGGKNFHFVHRSADVESVVSGTLRSAFEYGGQKCSACSRLYVPHSLWPQIKGRLLEEHSRIKVGDPAEDFGTFFSAVIDAKSFARIKKWLEHARSSPSLTILAGGKCDDSVGYFVEPCIVESKDPQEPIMKEEIFGPVLSVYVYPDDKYKETLQLVDSTTSYGLTGAVFSQDKDVVQEATKVLRNAAGNFYINDKSTGSIVGQQPFGGARASGTNDKPGGPHYILRWTSPQVIKETHKPLGDWSYAYMQ
B2 was tested, and the “stoichiometry N” value [2] was 2.
